Drawing on patent US20220282255A1, this text covers cell (luciferase assay inhibitory rate (%)) for one substance.

The assay addresses Recombinant Human TGF-β1, manufactured by Peprotech (human) (UniProt P01137). As to the kind of experiment: cell-based or functional assay.

Sequence of Recombinant Human TGF-β1, manufactured by Peprotech (human) (P01137 279-390 limits assumed): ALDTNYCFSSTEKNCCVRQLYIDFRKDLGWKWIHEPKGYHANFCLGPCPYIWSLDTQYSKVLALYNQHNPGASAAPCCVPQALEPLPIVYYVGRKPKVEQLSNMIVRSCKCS

For the substance known TGF-β antibody (R&D, MAB1835), the cell (luciferase assay inhibitory rate (%)) amounted to 100%.
